Results as given in US11466286B2, “Methods and compositions for conferring and/or enhancing herbicide tolerance using protoporphyrinogen oxidase or variant thereof” (FarmHannong Co., Ltd., priority 2016, dated 2022).
Positions count from the first letter of the chain named. Names may count otherwise.

What was measured:
[1] = test system: PPO-deficient BT3 E. coli (ΔPPO); assay: Herbicide tolerance of PPO-deficient BT3 E. coli transformed with CyPPO10/CyPPO13 wild type or mutant genes on herbicide-containing LB agar; type: cell-based; parameters: key: the level of herbicide tolerance of the wild type was represented by “−”; if higher, adding “+” to the max “+++++”; if higher, adding “+” to the max “+++++”; if higher, adding “+” to the max “+++++”; if higher, adding “+” to the max “+++++”; if higher, adding “+” to the max “+++++”
Description: In order to enhance PPO-inhibiting herbicide tolerance of CyPPO10 and CyPPO13, the amino acids interacting with herbicide, as identified in the Example 3, were mutated. After PPO-deficient BT3 E. coli (ΔPPO) was transformed with a PPO gene having such mutation, and then cultured with PPO-inhibiting herbicide, to observe the growth of transformed E. coli, as follows:
The pET303-CyPPO10 or pET303-CyPPO13 plasmids prepared in the Example 4, and plasmids containing each mutant gene, were transformed into BT3 competent cell by a heat shock method, and cultured in a LB agar medium containing ampicillin (100 μg/ml).
For seed culture of BT3 transformants, a single colony thereof was cultured in 3 ml of LB broth (LPSS) containing ampicillin for 12 hours or more, and 50˜100 μl of the cultured solution was further cultured until absorbance (OD600) reaches 0.5 to 1. Then, the obtained cultured solution was diluted with LB broth to adjust absorbance (OD600) to 0.5, and was diluted again 5 times by a factor of one tenth with LB broth.
LB (25 g/L), Bacto agar (12 g/L), ampicillin (100 μg/ml) and various herbicides (0˜200 μM) were mixed, to prepare herbicide-containing media.
Ten microliters of the diluted solution were dropped on the herbicide-containing media, and the media were incubated with light for 16-20 hours at 37° C. The growth level and PPO-inhibiting herbicide tolerance of BT3 transformed with each gene were evaluated.
The herbicide tolerance was evaluated relatively compared to CyPPO wild type, and shown in following Tables 8 to 11 and FIGS. 11 to 29:
In the Tables 8 to 11, the level of herbicide tolerance of the wild type was represented by “−”, and the level of herbicide tolerance was graduated by representing the equal level of tolerance by “−”, and if higher, adding “+” to the max “+++++”.
FIGS. 11 to 19 (wild type and variants of CyPPO10) and FIGS. 20 to 29 (wild type and variants of CyPPO13) show the results of culturing E. coli transformed with CyPPO genes (wild type and variant type), and the concentration described on the top is concentration of herbicide treated. Six columns of each concentration were sequentially diluted 5 times by a factor of one tenth with the E. coli culture solution to the right, and the most left column is the result of E. coli culture solution OD600=0.5.

[2] = test system: CyPPO10; assay: PPO enzyme activity and IC50 by herbicides, CyPPO10 wild type and variants (MBP-PPO fusion); type: biochemical, Thermosynechococcus elongatus BP-1; conditions: PPO enzyme activity of CyPPO10 protein, wild type = 100
Procedure, shortened: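 Activity was read as protoporphyrin IX fluorescence (405/633 nm), calibrated with a protoporphyrin IX standard curve, after 30 min at room temperature with 50 μM substrate under mineral oil. The buffer was 50 mM Tris-Cl pH 8.0 with glucose oxidase/catalase and a 30 min preincubation. Enzymes were purified MBP-PPO fusions of CyPPO10 or CyPPO13, wild type and variants, expressed in E. coli.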

[3] = test system: A. thaliana; assay: Seed germination of A. thaliana transformants on ½ MS media containing herbicides; type: in vivo, Arabidopsis thaliana; conditions: T3 lines; 25 μM glufosinate, 25 μM glufosinate+70 nM tiafenacil, or 25 μM glufosinate+30 nM tiafenacil+40 nM saflufenacil; 7 days after sowing
Description: T3 generation seeds of each transformant were sown in ½ MS media containing herbicides. Col-0 ecotype (wild type Arabidopsis) seeds were used as a control. The kinds of herbicides and concentration are as follows:
In FIGS. 31a to 31c, 10-3 refers to CyPPO10 wild type, 10FM-4-7 to the CyPPO10 F360M transgenic line, 10FL-1-9 to the CyPPO10 F360L transgenic line, 10FC-3-5 to the CyPPO10 F360C transgenic line, 10AC-5-4 to the CyPPO10 A167C transgenic line, 13-1 to CyPPO13 wild type, 13FM-3-1 to the CyPPO13 F373M transgenic line, 13FC-1-1 to the CyPPO13 F373C transgenic line, 13FI-2-1 to the CyPPO13 F373I transgenic line, 13AC-1-3 to the CyPPO13 A177C transgenic line, CyPPO13_ALFL to the CyPPO13 A177L+F373L transgenic line, and CyPPO13_ALFI to the CyPPO13 A177L+F373I transgenic line, respectively.

[4] = BT3 E. coli with CyPPO13 gene, relative to CyPPO13 wild type
[5] = BT3 E. coli with CyPPO10 gene, relative to CyPPO10 wild type

B1: CyPPO13 P316A + V318L: CyPPO13 (SEQ ID NO: 4) PPO variant (protein)
chain: MNPATPEPLNAEVVVIGAGISGLTLAWRLQQGLSARGGSPQAVLLAEASSRVGGCISTQSKDGYRWEEGPNSFTPTPALLNLIAEVGLTDQLVLADAKLPRYIYWEGALLPVPLSPAAALGSRLLSVGGKLRALQGLLGFVPPPPGHEETVRQFFRRQLGSEVAERLVEPFTSGVYAGDPDQLSAVAAFPRVAGLEERYGSLFAGALQALRQRPQPSPAAIQPPPKRGQLGNLRQGLQQLPEALAQKLGDSLRLGWRALQLKRAGELYWVGFETPEGSRWVAARQVVLALPAYEAAALLQELNPPASQLLAEILYAPLAVVALAYPQEALPQPLRGFGHLIPRSQGLRTLGTIWASCLFPERAPQGYHSFLSFLGGATDAALARRRGIPPIPALSPEERAQIAHAELSQVLLTRRAEPVYLGERLWPRAIPQYTLGHRQRIAQVQAHLASQTPGIWVCANYLDGVALGDCVRRAEALAQQLLSQV
modifications: Synthetic CyPPO13
Herbicide tolerance level, Acifluorfen (up to 200 μM) [1, 4]: +++ | Herbicide tolerance level, Fomesafen (up to 200 μM) [1, 4]: − | Herbicide tolerance level, Pyraclonil (up to 200 μM) [1, 4]: − | Herbicide tolerance level, Pyraflufen-ethyl (up to 200 μM) [1, 4]: + | Herbicide tolerance level, Sulfentrazone (up to 200 μM) [1, 4]: −

B2: CyPPO13 P316L + V318L: CyPPO13 (SEQ ID NO: 4) PPO variant (protein)
chain: B1 chain with A316L
modifications: Synthetic CyPPO13
Herbicide tolerance level, Acifluorfen (up to 200 μM) [1, 4]: +++ | Herbicide tolerance level, Fomesafen (up to 200 μM) [1, 4]: ++ | Herbicide tolerance level, Pyraclonil (up to 200 μM) [1, 4]: − | Herbicide tolerance level, Pyraflufen-ethyl (up to 200 μM) [1, 4]: + | Herbicide tolerance level, Sulfentrazone (up to 200 μM) [1, 4]: +

B3: CyPPO10 F360M: CyPPO10 (SEQ ID NO: 2) PPO variant (protein)
chain: MIEVDVAIVGGGLSGLSVAWRLQRSAPHYSGVLLEASDRLGGNITTQAAEGFVWELGPNSFAPTPALLQLIAEVGLHSELIRGDRHLPRYIYWRGELYPLEPTRPLALATSNLLSPWGKVRAALGALGFVPPYLGSGDESVDSFFRRHLGQEVAERLVAPFVSGVYAGDPQQLSAAAAFRRIAQLEKLGGSLIAGALRLRRQQPPQPKPPAQVQMRPGELGSFREGLAALPRAIAQQLKAPLHLQTPVEAITPEPKGGYLLRSGEQTWHARSVVLATPAYQTAELVAPFQPAIARALATIPYPTVACVVLAYPAGLGRSVRPGFGVLVPRGQGIRTLGTIWSSCLFPQRTPAGWQVFTSMIGGATDPDLASLREEAIVEQVQQDLTRLLDLPAAKARLLGMKVWRRAIPQYIVGYPQQWQQVTHALTQTPGLFLCSNYAEGVALGDRVEHGNRTAAAVAAYLAGGQS
modifications: Synthetic CyPPO10
Activity (%) [2]: 93% | Seed germination in media containing herbicides [3]: germinated

B4: CyPPO10 F360L: CyPPO10 (SEQ ID NO: 2) PPO variant (protein)
chain: B3 chain with M360L
modifications: Synthetic CyPPO10
Activity (%) [2]: 59% | Seed germination in media containing herbicides [3]: germinated

B5: CyPPO10 A167C: CyPPO10 (SEQ ID NO: 2) PPO variant (protein)
chain: B3 chain with A167C, M360F
modifications: Synthetic CyPPO10
Activity (%) [2]: 98% | Seed germination in media containing herbicides [3]: germinated

B6: CyPPO10 V305M: CyPPO10 (SEQ ID NO: 2) PPO variant (protein)
chain: B3 chain with V305M, M360F
modifications: Synthetic CyPPO10
Herbicide tolerance level, Acifluorfen (up to 200 μM) [1, 5]: +++ | Herbicide tolerance level, Fomesafen (up to 200 μM) [1, 5]: ++++ | Herbicide tolerance level, Pentoxazone (up to 200 μM) [1, 5]: ++++ | Herbicide tolerance level, Pyraclonil (up to 200 μM) [1, 5]: +++ | Herbicide tolerance level, Pyraflufen-ethyl (up to 200 μM) [1, 5]: + | Herbicide tolerance level, Saflufenacil (up to 200 μM) [1, 5]: + | Herbicide tolerance level, Tiafenacil (up to 200 μM) [1, 5]: ++ | Activity (%) [2]: 100%

B7: CyPPO10 F360I: CyPPO10 (SEQ ID NO: 2) PPO variant (protein)
chain: B3 chain with M360I
modifications: Synthetic CyPPO10
Activity (%) [2]: 67% | Seed germination in media containing herbicides [3]: germinated

B8: CyPPO10 F360C: CyPPO10 (SEQ ID NO: 2) PPO variant (protein)
chain: B3 chain with M360C
modifications: Synthetic CyPPO10
Seed germination in media containing herbicides [3]: germinated
